Measured values published in US8679782B2, “Production of triacylglycerides, fatty acids, and their derivatives” (Massachusetts Institute of Technology, priority 2009, dated 2014).

Tests used:
[1] = NAD(P)H-dependent glyceraldehyde 3-phosphate dehydrogenase (ND-G3PDH) activity assay; format: biochemical; conditions: purified histidine-tagged protein vs empty vector fractions; G3P and NAD(P)+
Protocol: NP-G3PDH activity was assayed as previously described with minor modifications (9). Briefly, reactions contained 1 mM NAD(P)+, 1 mM glyceraldehyde 3-phosphate and either […] of purified TadD or […] of crude bacterial lysate in a final volume of 1 ml. Reactions were incubated at 37° C. for one hour. Following incubation, the optical density of the reactions was measured at 340 nm. R. opacus cultures were grown in either lysogeny broth or MR medium supplemented with 4% glucose and 0.15% ammonium sulphate for 24 hours prior to mechanical disruption using a French pressure cell. Cellular debris was pelted by centrifugation at 20,000×g for 30 minutes.
Additionally, we fractionated supernatant from E. coli containing the parental plasmid which was used as an empty vector control. Fractions containing the histidine tagged TadD protein (and the corresponding fractions from the empty vector fractionation) were then used in ND-G3PDH activity assays.

purified lipid bodies [2] = assay: Western blotting of lipid bodies from the aggregation assay; format: binding, R. opacus PD630; conditions: supernatant and washed lipid body fractions
purified lipid bodies [3] = assay: Lipid aggregation assay with purified lipid bodies; format: biochemical, R. opacus PD630
Protocol: Lipid bodies were purified from R. opacus PD630 as previously described (27) with minor modifications. Briefly, R. opacus was grown for 96 h in minimal media supplemented with 4% glucose and 0.15% ammonium sulphate. Cultures were harvested via centrifugation at 6000×g for 20 minutes. Cell pellets were resuspended in 25 ml of PBS and lysed by passing through a French pressure cell set at 18,000 psi 5 times. An equal volume of 80% glycerol was added to lysates followed by centrifugation at 6000×g for 3 h at 4° C. Following centrifugation, the upper layer (lipid body fraction) was removed to 40 ml of 40% glycerol (tube #1) and the pellet (cell debris) was resuspended in 40 ml of 40% glycerol (tube #2) followed by a second centrifugation at 6000×g for 3 h. The lipid body layer (upper layer) from tube #1 was removed to 20 ml PBS and the cell debris (pellet) from tube #2 was resuspended in 20 ml of PBS followed by centrifugation at 7500×g for 30 min. All fractions were then resuspended in 5 ml of PBS and used immediately. […] Wells were imaged using a Canon Powershot SD1200 IS digital camera (Canon, Lake Success, N.Y.). To obtain a more quantitative measure of aggregation, 2 μl of the supernatant was removed from each well and the optical density at 600 nm was determined using a Nano-Drop spectrophotometer (Thermo Scientific, Wilmington, Del.).

yeast = assay: Yeast agglutination assay; format: cell-based; conditions: FIG. 85
[4] = Heparin-sepharose binding
Protocol: Purified TadA was diluted to a final concentration of 500 μg/ml in dialysis buffer. 100 mg of Heparin-sepharose CL-6B (GE Healthcare, Piscataway, N.J.) was resuspended in 5 ml of Tris buffer (20 mM Tris (pH7.0), 100 mM NaCl) and allowed to rehydrate with gentle agitation for 1 h. Following rehydration, the resin was pelleted via centrifugation at 1000×g for 2 minutes and subsequently washed 3 times in the same buffer. The resin was resuspended in 1 ml of Tris buffer to which 500 μg of purified TadA was added. The Sepharose-TadA slurry was incubated at 4° C. for 1 h with gentle agitation. Following incubation, the resin was pelleted, an aliquot of the supernatant was removed (flow-through fraction), the Sepharose was washed 5 times with Tris buffer and an aliquot of the supernatant from the final wash was removed (wash fraction). The remaining heparin-sepharose was resuspended in 1 ml of Tris buffer from which an aliquot was removed (beads fraction). 5× SDS-PAGE loading buffer was added to each aliquot, which were then boiled for 5 min. Samples were resolved using 10% acrylamide Ready gel Tris-HCl SDS-PAGE gels (Bio-Rad, Hercules, Calif.) and stained using colloidal coomassie as previously described (18, 31).

Molecule | NAD(P)H formation (increase in optical density at 340 nm) [1] | association with lipid bodies (anti-penta-histidine Western blot) (purified lipid bodies [2]) | optical density at 600 nm of the supernatants (purified lipid bodies [3]; 2 μl supernatant from each well) | lipid body aggregation and flocculation (96 well dish) (purified lipid bodies [3]; increasing protein concentrations, 12 h room temperature) | size of lipid body aggregates (Nile Red fluorescent microscopy) (purified lipid bodies [3]; samples from the aggregation assay) | yeast agglutination (yeast) | binding to heparin-sepharose in the presence of pure heparin ([4]; control with pure heparin) | binding to heparin-sepharose (SDS-PAGE of flow through, wash, beads) ([4]; purified hexa-histidine protein)
TadD: R. opacus PD630 non-phosphorylating NAD(P)+-dependent glyceraldehyde 3-phosphate dehydrogenase homolog, SEQ ID NO:4 (protein, listed as Rhodoccus opacus) MSIAADSLSNITPPGLTIDGEITTTAAVIPVINPATESAFIEVPDAGVEQLDAAVSAARRAAKHWATHDLPFRQGIVLRLVDHVRANIDELARLVTLEQGKPLAKAAGEIESGLRGLERYASWDIPVEVIRDNDDELIEVHRAPVGVVGGITAWNYPLLLALWKIGPALITGNPIIVKPSPLTPVATLRLGELAQQILPPGVLQVLSGGDDLGRAMTAHTGIDKITFTGSERAGKSIMAGAGATLKRLTLELGGNDPGIVLDDVDVASIAADLYWGALSNCGQVCAGLKRLYVPQHLAPAIEEALAEVAKGVKVGNGLDDGVDMGPVQNAAQFTKVRGYVDDAANRGADVYFRGEVPEGPGYFHPVTLVRGVDDSVPLVREEQFGPVLPILTYTDIDDVIARANDSELALGASVWSSDEQRATEVAERVEAGTVWVNQHPMLSSDVPFGGVKQSGLGVEQSIHGVLEYTNYRVLRVKR | significantly more NAD(P)H |  |  |  |  |  |  | 
TadA: R. opacus PD630 heparin-binding hemagglutinin homolog, SEQ ID NO:11 (protein, listed as Rhodoccus opacus) MTDQKTIDSVKTSLYAAVGAGDVVVQAVADVVAQVRSRAESTQGDVEERVGGAKERIAGLQEEVTEGVENLRDRLAGLPSELPEELAELREKFTADELRKVAEAYLKVASDLYTSLAERGEDTVERIRKQPVVEEGIGRAETAFGDAVELTEEALGTVARQTRAVGEQAAKLAGRASGRISDTAEGLGEAIADAGDEAALKVLDLGDQAEEASKDAADRVAATAADVQAQADKAAQAKHAAPAKKAAPAKAAATPAPAPAKKVAAPAKKAAPAKKA |  | detected in both the supernatant as well as the lipid body fractions | decreases as protein concentration increases | capable of inducing lipid body aggregation and subsequent flocculation in a dose-dependent manner | aggregated into very large clumps | yeast agglutination mediated by TadA | completely abrogated any binding | the majority of the protein was found associated with the heparin-sepharose
